These results are taken from doi:10.1101/2023.07.15.549169.

Series [1] relates to SMAD4 R100T;SMAD3 WT. Nature of the series: TR-FRET. A general note: Time-resolved FRET reads energy transfer from a long-lived donor to a nearby acceptor.
The subject of series [2] is SMAD4 WT;SMAD3 P124S. Nature of the series: TR-FRET.

On to 5'-FAM-SBE4, for which the binding signal (% of WT PDI signal) in series [1] and in series [2] was 25 throughout.
